Experimental data taken from patent US20220127313A1.
Non-standard residues stand in square brackets, D forms with d. No end group written: not given here. pS = N[C@@H](COP(=O)(O)O)C(=O)O

Legend:
Assay in all cases: cell-based or functional assay
[1] = target: p38 MAPK β isoform, Q15759
[2] = target: p38 MAPK γ isoform, P53778
[3] = target: p38 MAPK δ isoform, O15264
Sequence of p38 MAPK δ isoform, O15264 (O15264 whole entry, stated change not applied, canonical isoform): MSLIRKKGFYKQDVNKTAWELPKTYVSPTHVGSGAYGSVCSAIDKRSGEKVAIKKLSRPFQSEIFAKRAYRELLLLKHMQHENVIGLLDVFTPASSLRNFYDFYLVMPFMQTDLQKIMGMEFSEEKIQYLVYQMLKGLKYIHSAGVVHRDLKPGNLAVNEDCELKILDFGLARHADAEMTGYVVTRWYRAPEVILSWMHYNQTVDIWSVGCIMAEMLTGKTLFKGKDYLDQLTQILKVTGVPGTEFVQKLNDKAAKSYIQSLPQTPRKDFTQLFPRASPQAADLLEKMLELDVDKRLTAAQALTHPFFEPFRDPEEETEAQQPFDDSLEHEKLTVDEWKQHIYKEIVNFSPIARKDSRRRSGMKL

Sequence of p38 MAPK β isoform, Q15759 (Q15759 whole entry, canonical isoform): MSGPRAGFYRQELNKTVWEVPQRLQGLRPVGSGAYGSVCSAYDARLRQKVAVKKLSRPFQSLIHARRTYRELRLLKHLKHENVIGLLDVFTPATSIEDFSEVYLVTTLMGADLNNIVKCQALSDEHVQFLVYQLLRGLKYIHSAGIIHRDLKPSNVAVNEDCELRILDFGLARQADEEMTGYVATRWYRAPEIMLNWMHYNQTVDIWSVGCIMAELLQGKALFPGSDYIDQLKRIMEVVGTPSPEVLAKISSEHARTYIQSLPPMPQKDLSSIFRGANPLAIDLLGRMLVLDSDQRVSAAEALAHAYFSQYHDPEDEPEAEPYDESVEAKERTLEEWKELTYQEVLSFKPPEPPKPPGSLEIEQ
Sequence of p38 MAPK γ isoform, P53778 (P53778 whole entry, canonical isoform): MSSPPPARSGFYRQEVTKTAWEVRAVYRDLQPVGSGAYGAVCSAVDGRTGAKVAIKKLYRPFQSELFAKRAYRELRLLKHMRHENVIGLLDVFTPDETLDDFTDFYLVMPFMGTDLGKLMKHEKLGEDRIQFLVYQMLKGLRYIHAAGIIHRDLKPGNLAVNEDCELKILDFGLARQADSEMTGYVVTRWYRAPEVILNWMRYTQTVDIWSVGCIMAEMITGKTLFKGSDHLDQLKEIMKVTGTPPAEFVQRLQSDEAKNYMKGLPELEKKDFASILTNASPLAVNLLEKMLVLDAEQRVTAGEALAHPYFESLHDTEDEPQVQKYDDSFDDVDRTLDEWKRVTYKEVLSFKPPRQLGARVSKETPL

YARAAARQARASPAARRA[pS]AILPG [NiPp polypeptide (Niban phosphopeptide), …(pS)AILPG]
% inhibition in kinase profiling screen, NiPp at 100 µM [1]: 5% | % inhibition in kinase profiling screen, NiPp at 100 µM [2]: 3% | % inhibition in kinase profiling screen, NiPp at 100 µM [3]: 3%
